In publication PMC6697681, “The predominance of nucleotidyl activation in bacterial phosphonate biosynthesis” (Nature Communications, 2019):

How the values were obtained:
NCCP(=O)(O)O = test: purified protein; settings: saturating CTP (4 mM), 7 mM MgCl2, room temperature
[1] = system: C[N+](C)(C)CCOP(=O)([O-])O; test: purified protein; settings: saturating CTP (4 mM), 7 mM MgCl2, room temperature; fit with substrate inhibition

Row | Substance | Km (NCCP(=O)(O)O) [µM] | kcat (NCCP(=O)(O)O) [s⁻¹] | Km [1] [µM] | kcat [1] [s⁻¹] | kcat/Km [1] [M⁻¹ s⁻¹]
1 | Spn-LicC (Streptococcus pneumoniae R6) | 318 ± 129 | 0.723 ± 0.054 | 2.36 ± 0.65 | 1.06 ± 0.04 | 
2 | Ari-PntC (Ari1348) (Lancefieldella rimae ATCC 49626) | 12 ± 1 |  | 1000 ± 800 | 0.7 ± 0.3 | 720
